Assay results published in paper PMC5209733, “U24 from Roseolovirus interacts strongly with Nedd4 WW Domains” (Scientific Reports, 2017).

Assays:
[1] = target: hNedd4L-WW3* domain (third WW domain of human Nedd4-like protein, GST tag removed) (human) (UniProt Q96PU5); test: ITC; peptide titrated into the cleaved WW domain (40 to 150 uM) in the cell; 10 mM sodium phosphate, pH 7.4, 25 °C; MicroCal VP-ITC; bimolecular interaction model; three runs (further runs with 100 mM and 500 mM NaCl told in words only)
Chain of hNedd4L-WW3* domain (third WW domain of human Nedd4-like protein, GST tag removed) (human) (Q96PU5 496-539): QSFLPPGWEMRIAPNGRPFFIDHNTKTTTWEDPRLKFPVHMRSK

[2] = target: Fyn SH3 (Homo sapiens) (UniProt P06241); settings: cited from earlier work
Chain of Fyn SH3 (Homo sapiens) (P06241 79-146): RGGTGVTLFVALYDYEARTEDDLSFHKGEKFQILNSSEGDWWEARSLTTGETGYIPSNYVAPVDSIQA

[3] = target: hNedd4-WW3* domain (third WW domain of human Nedd4, GST tag removed) (human) (UniProt P46934); test: ITC; peptide titrated into the cleaved WW domain (40 to 150 uM) in the cell; 10 mM sodium phosphate, pH 7.4, 25 °C; MicroCal VP-ITC; bimolecular interaction model; three runs (further runs with 100 mM and 500 mM NaCl told in words only)
Chain of hNedd4-WW3* domain (third WW domain of human Nedd4, GST tag removed) (human) (P46934 whole entry, the tested form may be a part): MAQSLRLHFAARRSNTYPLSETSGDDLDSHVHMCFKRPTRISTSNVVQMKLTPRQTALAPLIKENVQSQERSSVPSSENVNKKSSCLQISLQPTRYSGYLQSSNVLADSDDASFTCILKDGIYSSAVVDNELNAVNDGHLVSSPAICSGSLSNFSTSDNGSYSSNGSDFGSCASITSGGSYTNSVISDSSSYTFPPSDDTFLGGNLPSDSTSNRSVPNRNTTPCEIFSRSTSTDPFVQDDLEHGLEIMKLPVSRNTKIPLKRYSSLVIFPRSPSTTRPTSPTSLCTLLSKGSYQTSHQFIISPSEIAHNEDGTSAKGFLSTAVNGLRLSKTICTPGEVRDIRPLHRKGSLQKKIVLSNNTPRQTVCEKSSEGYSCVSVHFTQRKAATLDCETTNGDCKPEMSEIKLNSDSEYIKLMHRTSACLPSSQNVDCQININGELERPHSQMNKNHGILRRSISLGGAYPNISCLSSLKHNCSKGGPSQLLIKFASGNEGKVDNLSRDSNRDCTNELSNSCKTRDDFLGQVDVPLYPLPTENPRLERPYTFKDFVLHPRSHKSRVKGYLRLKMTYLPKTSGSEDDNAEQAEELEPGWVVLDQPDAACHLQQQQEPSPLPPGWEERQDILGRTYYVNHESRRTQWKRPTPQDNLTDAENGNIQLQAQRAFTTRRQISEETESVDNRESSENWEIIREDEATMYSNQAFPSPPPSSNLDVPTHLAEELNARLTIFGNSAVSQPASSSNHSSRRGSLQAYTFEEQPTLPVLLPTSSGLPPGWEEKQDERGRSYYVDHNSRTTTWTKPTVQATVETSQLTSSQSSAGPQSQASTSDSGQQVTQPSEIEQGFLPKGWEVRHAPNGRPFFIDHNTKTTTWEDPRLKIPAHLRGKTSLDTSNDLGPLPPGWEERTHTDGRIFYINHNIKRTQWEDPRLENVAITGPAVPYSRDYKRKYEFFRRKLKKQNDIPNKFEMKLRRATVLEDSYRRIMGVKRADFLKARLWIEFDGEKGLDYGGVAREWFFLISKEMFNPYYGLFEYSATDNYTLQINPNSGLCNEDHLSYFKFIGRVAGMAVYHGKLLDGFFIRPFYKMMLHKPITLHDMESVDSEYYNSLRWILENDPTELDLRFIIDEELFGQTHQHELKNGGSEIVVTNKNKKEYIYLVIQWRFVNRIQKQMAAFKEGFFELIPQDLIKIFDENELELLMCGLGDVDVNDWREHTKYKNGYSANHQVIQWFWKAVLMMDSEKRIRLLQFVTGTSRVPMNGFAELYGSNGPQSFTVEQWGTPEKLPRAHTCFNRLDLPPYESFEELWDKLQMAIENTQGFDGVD

[4] = target: rNedd4-WW2 domain (second WW domain of rat Nedd4, GST tag removed) (rat) (UniProt Q62940); test: as above
Chain of rNedd4-WW2 domain (second WW domain of rat Nedd4, GST tag removed) (rat) (Q62940 whole entry, the tested form may be a part): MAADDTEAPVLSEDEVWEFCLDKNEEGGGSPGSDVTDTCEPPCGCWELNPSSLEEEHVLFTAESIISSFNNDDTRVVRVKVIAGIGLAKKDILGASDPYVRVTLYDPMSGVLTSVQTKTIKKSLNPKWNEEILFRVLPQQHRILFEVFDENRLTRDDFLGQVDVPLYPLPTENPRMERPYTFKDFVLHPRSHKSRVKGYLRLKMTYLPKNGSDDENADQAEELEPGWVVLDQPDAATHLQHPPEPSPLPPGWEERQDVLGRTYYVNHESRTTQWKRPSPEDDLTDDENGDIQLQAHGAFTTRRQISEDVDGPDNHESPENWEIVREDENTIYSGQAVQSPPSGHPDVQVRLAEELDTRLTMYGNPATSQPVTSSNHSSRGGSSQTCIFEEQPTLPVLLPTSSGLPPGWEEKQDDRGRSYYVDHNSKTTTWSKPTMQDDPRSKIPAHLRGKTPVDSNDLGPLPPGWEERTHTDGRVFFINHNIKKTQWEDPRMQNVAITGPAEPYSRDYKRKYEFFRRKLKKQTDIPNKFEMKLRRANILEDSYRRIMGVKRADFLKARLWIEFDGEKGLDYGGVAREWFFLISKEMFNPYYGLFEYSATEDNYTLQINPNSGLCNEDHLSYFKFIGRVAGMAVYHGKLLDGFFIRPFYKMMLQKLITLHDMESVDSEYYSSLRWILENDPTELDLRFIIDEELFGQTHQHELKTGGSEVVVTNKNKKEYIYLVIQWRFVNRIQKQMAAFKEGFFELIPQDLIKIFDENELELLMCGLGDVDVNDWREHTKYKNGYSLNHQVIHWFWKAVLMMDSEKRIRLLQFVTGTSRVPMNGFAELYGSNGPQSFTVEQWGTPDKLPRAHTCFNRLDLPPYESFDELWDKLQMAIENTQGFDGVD

[5] = target: rNedd4-WW3/4 domain (third WW domain of rat Nedd4, GST tag removed) (rat) (UniProt Q62940); test: as above
Chain of rNedd4-WW3/4 domain (third WW domain of rat Nedd4, GST tag removed) (rat) (Q62940 452-499): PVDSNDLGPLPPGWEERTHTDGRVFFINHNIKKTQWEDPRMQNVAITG

In the case of Nogo-A PY motif peptide, the Kd [1] is reported as 4 µM and the dH [1] is reported as -13.8 kcal/mol.
For U24-6A (from UniProt Q69559), the Kd [2] is listed as 5000 µM.
Substance “U24-6A peptide (15-mer, N-terminus of U24 from HHV-6A) (from UniProt Q69559 1-15)” has a Kd [3] of 9.7 µM, a dH [3] of -12.7 kcal/mol and a Kd [4] of 155 µM. The dH [4] was -12.9 kcal/mol.
With “U24-7 peptide (15-mer, N-terminus of U24 from HHV-7)” the Kd [3] was 1.98 µM, the dH [3] was -16.8 kcal/mol and the Kd [4] was 87 µM. The dH [4] was -18.2 kcal/mol, the Kd [5] was 21 µM and the dH [5] was -15.2 kcal/mol.
